Test results as given in the DeepSol protein solubility set.

Experiment: soluble on expression in E. coli; label from the status in PepcDB or PDB records

Sequence	soluble on expression in E. coli
MLAVHRPSSAVSDGDSVQIPMMIASFQKRFPSLSRDSTAARFHTHEVGPNQCCSAVIQEISAPISTVWSVVRRFDNPQAYKHFLKSCSVIGGDGDNVGSLRQVHVVSGLPAASSTERLDILDDERHVISFSVVGGDHRLSNYRSVTTLHPSPISGTVVVESYVVDVPPGNTKEETCDFVDVIVRCNLQSLAKIAENTAAESKKKMSL	not soluble
MKRSHLENALNYALENSETAYNEMFLECDKQFILESWLNDFDLTKDYNETMHLVFSIKDKPDEETMQGLLHSTWESLKIRLPEYKFALVPHAHQDHAHIHCFINKTNQLTRRRLRFKGHEDCKEFFNELRSEFAYRLNDHLLSEEYLYVNEPKLKELDNIKQQLQDLEKEEKALEQIKSPQDEWDLNKALQSEYLQELKYKNKAKALDIQNNHSTPLKQKISEFKIALFNHKDTSDDEKEQLDIDRIDKRKPVSEHLKNTNKHELYELLGFYQKELDKKQNHSAFKNFAILNGLDRDFERETNGYSVLKKKEMLLNKLEHLDKRLLDKNSHLLLAQ	not soluble
GGVVLRVVTVLEEPFVMVSENVLGKPKKYQGFSIDVLDALSNYLGFNYEIYVAPDHKYGSPQEDGTWNGLVGELVFKRADIGISALTITPDRENVVDFTTRYMDYSVGVLLRRGTSIQSLQDLSKQTDIPYGTVLDSAVYQHVRMKGLNPFERDSMYSQMWRMINRSNGSENNVLESQAGIQKVKYGNYAFVWDAAVLEYVAINDPDCSFYTVGNTVADRGYGIALQHGSPYRDVFSQRILELQQSGDMDILKHKWWPKNGQCDL	soluble
MKATSEELAIFVSVVESGSFSRAAEQLGQANSAVSRAVKKLEMKLGVSLLNRTTRQLSLTEEGERYFRRVQSILQEMAAAESEIMETRNTPRGLLRIDAATPVVLHFLMPLIKPFRERYPEVTLSLVSSETIINLIERKVDVAIRAGTLTDSSLRARPLFNSYRKIIASPDYISRYGKPETIDDLKQHVCLGFTEPASLNTWPIACSDGQLHEVKYGLSSNSGETLKQLCLSGNGIACLSDYMIDKEIARGELVELMADKVLPVEMPFSAVYYSDRAVSTRIRAFIDFLSEHVKTAPGGVMPIS	not soluble
MVTVPDAIKGSSPTPQQDLVRVMSAPQLYVGQEARFGGKVVAVQNQQGKTRLEIATVPLDSGARPTLGEPSRGRIYADVNGFLDPVDFRGQLVTVVGPITGAVDGKIGNTPYKFMVMQVTGYKRWHLTQQVIMPPQPIDPWFYGGRGWPYGYGGWGWYNPGPARVQTVVTELEHHHHHH	soluble
SGARRMETDYNPVELSSMSGFEEGSELNGFEGADMKDMQLEAEAVVNDVLFAVNHMFVSKSMPCADDVAYINVETKERNRYCLELTEAGLRVVGYAFDQVEDHLQTPYHETVYSLLDTLSPAYREAFGNALLQRLEALKRDGQS	soluble
MSELSQLSPQPLWDIFAKICSIPHPSYHEEALAAHILEWAKEKGIYAERDQVGNILLRKAATAGMENRKPVVLQAHLDMVPQKNNDTVHDFTTDPIQPYVDGEWLKARGTTLGADNGIGMASALAVLADPSVEHGPLEVLLTMTEEAGMDGAFGLQPNWLQGEILINTDSEEEGEIYMGCAGGIDFITRLPLVREVPPAGYQTLKLTIKGLKGGHSGGDIHLGLGNANKLLARFLFEQAEALDIRILDLNGGTLRNAIPREAFATLSLPAANVEQLKTLSQDYLAVLKNELSAVEKNLTVLVEANDSNEHPLTQDSRDRLLGLLNATPNGVIRMSDDVKGVVETSLNLGVVTMEDDHAEIICLIRSLIDSGKDAVVGTLTALGQLAGAKTSPKGGYPGWQPDAHSPVMALVRETYQKQFNKTPNIMVIHAGLECGLFKKPYPDMDMVSIGPTITGPHSPDEQVHIGSVDLYWKLLTELLKAIPPRALEHHHHHH	soluble
MAHHHHHHMSGYLKVLSPDGRWETRYIEIDDAKLRIWRTKGDKESSAAVVKELDLKCATLREVSEPNTWAVQPEKAEATYFQADGEERKTEWMDTLRHYNSSSSGSEKVTLRDFEKKFVLGKGSYGKVFMVVKKDTDKWYAMKEMSAEKMRQAEIKAPFAERIILEEIDHPFIVHLHYSFQEQGNLYMILDLLAGGELFTYIEQHAPLDEEVVKFYAAEVALALGYLHSRNIIYRDLKPENVVFDRDGHACLTDFGLAKANVHEPNAVTYCGTNEYLAPELLKGVPHGKAVDWWSLGLMMCEMLFNDLPFYDENPMQMQMKILTEDVAFPPHIQITEETKDLIRCLLNKNPERRLQTLEAFKAHKCFSNLDFCLLEARKLKAPITPDPNPAHNFAKEFTSEVIVQNESPSQAVVTLAGYTYDRDLSEQEKSPSHSPTIAEELRQRRASKKRPTNGSDAASPPVTGENRTSNSSPAGVPMKQAAPGPVKKVEHHIPAKVAPQAARKKLTGNKSFDKPTK	soluble
